This passage reports Kd results from article PMC10901556, “Conservation of Affinity Rather Than Sequence Underlies a Dynamic Evolution of the Motif-Mediated p53/MDM2 Interaction in Ray-Finned Fishes” (Molecular Biology and Evolution, 2024).

Where no end group is shown, it is not given here.

B2: MDM2_(D.rerio) SWIB domain (domain or fragment)
chain: SQISKVDNEKLVRPKVQLKSLLEDAGADKDVFTMKEVMFYLGKYIMSKELYDKQQQHIVHCGEDPLGAVLGVKSFSVKEPRALFALINRNLVT

Test in all cases: fluorescence polarisation; displacement: complex of MDM2 (0.2-2 μM) and FITC-p53TAD_(human)^15–26 (15 nM) displaced by increasing unlabeled p53TAD peptide or p53TAD^full-length; KD calculated from IC50 (Nikolovska-Coleska et al. 2004); 20 mM sodium phosphate pH 7.4, 150 mM NaCl, 1 mM TCEP
Holding throughout (details): both partners purified

The target in experiment [1] is B2.
The target in another experiment is T1, p53TAD_(H.sapiens)^15–27 (Homo sapiens (human), N-terminal acetylated).
T1 construct: also called p53TAD_(human)^15–27; Homo sapiens (human) p53TAD^15–27; source: bought: GeneCust (France), peptide

The target of experiment [2] is T2, MDM2 SWIB domain from Takifugu rubripes (Japanese puffer) (Takifugu rubripes (Japanese puffer)).
T2 construct: MDM2 SWIB domain, Takifugu rubripes; pETM33 vector; Construct limits are in supplementary Spreadsheet S5; also called MDM2 T. rubripes; source: E. coli BL21 (DE3), purified (glutathione agarose, PreScission cleavage, Nickel Sepharose flow-through, SEC); not shown: His6, N-terminal, cleaved; GST, N-terminal, cleaved

B1: Danio rerio (zebrafish) p53TADP2 p53TAD^15–27 (peptide)
peptide: Ac-SQEFAELWEKNL
notes: numbers count on: human p53TAD; also called p53TAD^15–27_(D.rerio); source: bought: GeneCust (France), peptide
As a reminder, the Kd is a measure of binding affinity in units of concentration. With B1, the Kd in experiment [1] was 3600 ± 300 nM.

As to B2, the Kd with p53TAD_(H.sapiens)^15–27 was 790 ± 50 nM.

B3: Takifugu rubripes (Japanese puffer) p53TADP1 p53TAD^full-length (domain or fragment)
chain: MTLNEMTSSSMFLCRSSSDLPAHHRGRMEDEGFSLPLSQDTFQDLWENVAAPSIVTIPTTSLENEQWHQELLMNYPELPFNEELFNLPSEMASKDSANLSTPTVPV
For the molecule B3, the Kd in experiment [2] is 470 ± 30 nM.
